Measured values from publication PMC4072346.

B1: PHLPP1 (Homo sapiens) (protein)
chain: PRLVLDHKTLELLNNIRCFKIDQPSTGDASGAPAVWSHGYTEASGVKNKLCVAALSVNNFCDNREALYGVFDGDRNVEVPYLLQCTMSDILAEELQKTKNEEEYMVNTFIVMQRKLGTAGQKLGGAAVLCHIKHDPVDPGGSFTLTSANVGKCQTVLCRNGKPLPLSRSYIMSCEEELKRIKQHKAIITEDGKVNGVTESTRILGYTFLHPSVVPRPHVQSVLLTPQDEFFILGSKGLWDSLSVEEAVEAVRNVPDALAAAKKLCTLAQSYGCHDSISAVVVQLSVTEDSFCCCELSAGGAVPPPSPGIFPPSVNMVIKDRPSDGLGVPSSSSGMASEISSELSTSEMSSEVGSTASDEPPPGA
B2: PHLPP2 (Homo sapiens) (protein)
chain: SHGLAEMAGQRNKLCVSALAMDSFAEGVGAVYGMFDGDRNEELPRLLQCTMADVLLEEVQQSTNDTVFMANTFLVSHRKLGMAGQKLGSSALLCYIRPDTADPASSFSLTVANVGTCQAVLCRGGKPVPLSKVFSLEQDPEEAQRVKDQKAIITEDNKVNGVTCCTRMLGCTYLYPWILPKPHISSTPLTIQDELLILGNKALWEHLSYTEAVNAVRHVQDPLAAAKKLCTLAQSYGCQDNVGAMVVYL

Substrate: O=[N+]([O-])c1ccc(OP(=O)(O)O)cc1
Assay: purified protein
Assay type: biochemical, Homo sapiens
Details: pH 7.5

Protein	Km	kcat [s⁻¹]	kcat/Km [M⁻¹ s⁻¹]
B1	(2.1 ± 0.2) × 10^–3 M	0.0018 ± 0.0003	0.9 ± 0.2
B2	(1.3 ± 0.2) × 10^–3 M	0.37 ± 0.08	285 ± 9
